Data published in the supplement of paper PMC10126150.
± gives the standard deviation of the averaged measurements.

System: ATP
Assay: switch fluorescence ratio, 500 uM ATP over buffer (Cy3 cluster intensity, sum of 5 cycles each) (fold (ratio)); higher = stronger signal-on switching upon ATP binding; sequences stand for … in TCGTCGGCAGCGTCAGATGTGTATAAGAGACAGTTTTTTTTTTTTTTTTTTTTTTTTT…TC
Details: aptamer strand: ATP DNA aptamer (quencher-CACCTGGGGGAGTATTGCGGAGGAAGG + anchor), 100 nM annealed; ATP concentration: 500 uM
Procedure, shortened: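 Values give the fluorescence ratio for each switch-domain sequence, averaged from per-cluster ratios of summed target-cycle to summed buffer-cycle Cy3 intensity. The Cy3-labelled switching-strand clusters sat on a modified Illumina MiSeq flow-cell, were annealed to 100 nM quencher-labelled ATP aptamer, and were imaged in selection buffer, then after 15 min with 500 uM ATP at 22 °C. Five cycles ran with NaOH stripping and re-annealing between them, and clusters outside 100-1000 RFU were excluded.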
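Note: ATP exposure 15 min at 22 °C before imaging.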

Work on CTGGAAGTTT yielded a switch fluorescence ratio of 0.952 ± 0.044.

ATAATGGGCA showed a switch fluorescence ratio of 0.983 ± 0.064.

GTAAGGCGCA showed a switch fluorescence ratio of 0.9885 ± 0.0086.

In the case of AAAGCAGTTT, the switch fluorescence ratio is reported as 1.05 ± 0.022.

Sequence ATCGGGGTAT has a switch fluorescence ratio of 0.992 ± 0.042.

TTTTGCAGG was tested, and the switch fluorescence ratio was 0.991 ± 0.05.

With TGTGTTCACA the switch fluorescence ratio was 0.98 ± 0.0058.

With AGTCTGAAGA the switch fluorescence ratio was 0.987 ± 0.036.

CCTTAGGTAT gave a switch fluorescence ratio of 1.011 ± 0.0094.

AAAAGATATT showed a switch fluorescence ratio of 0.996 ± 0.049.

For AGGCAGACCG, the switch fluorescence ratio was 1.03 ± 0.07.

GAGGGTTTTT gave a switch fluorescence ratio of 1 ± 0.021.

For GCAGTAATTT, the switch fluorescence ratio was 1.49 ± 0.62.

TTGAGGACGT was tested, and the switch fluorescence ratio was 0.975 ± 0.045.

In the case of CTTCGTGCAT, the switch fluorescence ratio is reported as 1.23 ± 0.069.

Sequence TATGGTTTAA has a switch fluorescence ratio of 0.975 ± 0.042.

For AGTAAGGCGC, the switch fluorescence ratio was 1.02 ± 0.045.

Sequence ATCTAGGGGA has a switch fluorescence ratio of 0.9995 ± 0.0066.

With TCGTACTGTG the switch fluorescence ratio was 1.02 ± 0.1.

ACAGGGCCGT showed a switch fluorescence ratio of 1.03 ± 0.033.

In the case of CGGGGTAGCT, the switch fluorescence ratio is reported as 0.989 ± 0.035.

For TGGGTTGGCC, the switch fluorescence ratio was 0.99 ± 0.043.

Sequence TGGAAAGGGT has a switch fluorescence ratio of 1.06 ± 0.035.

Work on ACTGTTAGTG yielded a switch fluorescence ratio of 1.02 ± 0.034.

ATGGGGTTGG showed a switch fluorescence ratio of 1 ± 0.049.

With CATATTCGCT the switch fluorescence ratio was 1.01 ± 0.016.

In the case of CGGGGACGGG, the switch fluorescence ratio is reported as 1.02 ± 0.013.

Sequence CGGCGCGTAG has a switch fluorescence ratio of 1.05 ± 0.031.

For GAGTTAGTTA, the switch fluorescence ratio was 0.989 ± 0.028.

GTTTTAGTTT showed a switch fluorescence ratio of 0.987 ± 0.037.

TGAATAATCT gave a switch fluorescence ratio of 1.055 ± 0.004.

For GGAAATGACT, the switch fluorescence ratio was 1.01 ± 0.021.

AAGTTTTTTA showed a switch fluorescence ratio of 0.993 ± 0.023.

In the case of TCTCAGGGGT, the switch fluorescence ratio is reported as 1.07 ± 0.094.

Work on TAGGTCCTTG yielded a switch fluorescence ratio of 0.9851 ± 0.0061.

GCGTTTGCGC gave a switch fluorescence ratio of 1.03 ± 0.016.

Sequence TTGAGTGGGT has a switch fluorescence ratio of 0.99 ± 0.042.

Sequence GTGGTGCTTA has a switch fluorescence ratio of 0.996 ± 0.032.

With TATTCCAATA the switch fluorescence ratio was 0.995 ± 0.03.

In the case of GAAAGAAATG, the switch fluorescence ratio is reported as 0.9994 ± 0.003.

For TGGCAGTGGT, the switch fluorescence ratio was 0.993 ± 0.03.

In the case of ATGTTTGATT, the switch fluorescence ratio is reported as 0.999 ± 0.047.

Work on CTCGAATGTA yielded a switch fluorescence ratio of 0.994 ± 0.014.

For AATTTTATCT, the switch fluorescence ratio was 0.99 ± 0.014.

GCTGAGAGTC was tested, and the switch fluorescence ratio was 0.992 ± 0.034.

For TTTTTGGGGC, the switch fluorescence ratio was 1.03 ± 0.072.

With ATGAAGTAGG the switch fluorescence ratio was 0.989 ± 0.013.

In the case of AGGTTGTGGG, the switch fluorescence ratio is reported as 1.02 ± 0.022.

CACTGTCGAT gave a switch fluorescence ratio of 1.016 ± 0.0097.

TCAGCCGGGA gave a switch fluorescence ratio of 1.08 ± 0.024.

CCGCTTGAGA showed a switch fluorescence ratio of 1.08 ± 0.025.

TATTATTTCA gave a switch fluorescence ratio of 0.991 ± 0.024.

GATGATTCGG gave a switch fluorescence ratio of 0.984 ± 0.037.

For GATATGCTGG, the switch fluorescence ratio was 0.987 ± 0.018.

In the case of TTGACAGT, the switch fluorescence ratio is reported as 0.9777 ± 0.0022.

TTCAGGATAC gave a switch fluorescence ratio of 1.19 ± 0.043.

ACGTCAAGGT gave a switch fluorescence ratio of 1.0871 ± 0.00061.

With CAGGGGTGCT the switch fluorescence ratio was 1.03 ± 0.03.

For TTACTTCAGG, the switch fluorescence ratio was 1.032 ± 0.0026.

Work on CCTGCATTTG yielded a switch fluorescence ratio of 1.0933 ± 0.00019.

For TCGGGATTTT, the switch fluorescence ratio was 0.997 ± 0.041.

For AAGCAGCTGT, the switch fluorescence ratio was 1.01 ± 0.034.

ATCTACCATG was tested, and the switch fluorescence ratio was 1.03 ± 0.04.

GTGGGAAAAA showed a switch fluorescence ratio of 1.01 ± 0.0085.

Sequence TAACTGTAGG has a switch fluorescence ratio of 1.02 ± 0.033.

TCTAATTGTT showed a switch fluorescence ratio of 0.9991 ± 0.0053.

With GTTACAGAGA the switch fluorescence ratio was 1.003 ± 0.0011.

In the case of TTTAGCGACG, the switch fluorescence ratio is reported as 1.069 ± 0.0098.

AGGAAGTCTG showed a switch fluorescence ratio of 1.03 ± 0.035.

In the case of GTATTGGGGC, the switch fluorescence ratio is reported as 0.9807 ± 0.0029.

With TGCTATAGAG the switch fluorescence ratio was 1.048 ± 0.0012.

For TGGATGAGTG, the switch fluorescence ratio was 0.9822 ± 0.0077.

GGGCGATGTT gave a switch fluorescence ratio of 0.984 ± 0.04.

With CGAGGGGGGT the switch fluorescence ratio was 1.02 ± 0.027.

Work on CTGGCATGTA yielded a switch fluorescence ratio of 1.0141 ± 0.00098.

Work on GGTGGAGATC yielded a switch fluorescence ratio of 1 ± 0.051.

Work on TTATCGATGG yielded a switch fluorescence ratio of 0.987 ± 0.022.

Sequence CCCTTGTCCG has a switch fluorescence ratio of 1.05 ± 0.037.

AGTATGAGTA gave a switch fluorescence ratio of 1.015 ± 0.0088.

TGGGTTTTAC was tested, and the switch fluorescence ratio was 1.01 ± 0.049.

Work on CGTGCGTCGG yielded a switch fluorescence ratio of 1.01 ± 0.017.

With AGTTTGGGGC the switch fluorescence ratio was 0.984 ± 0.045.

TGGGCTTAGT was tested, and the switch fluorescence ratio was 0.992 ± 0.012.

For GGTGTATTGG, the switch fluorescence ratio was 0.991 ± 0.029.

For CGTTACTACG, the switch fluorescence ratio was 1.06 ± 0.028.

In the case of GATGTAGATA, the switch fluorescence ratio is reported as 0.9778 ± 0.0032.

Work on ATAGGTATCT yielded a switch fluorescence ratio of 0.988 ± 0.019.

Work on TAAGGAGAAT yielded a switch fluorescence ratio of 0.9676 ± 0.0046.

Sequence TCTTTTCGTT has a switch fluorescence ratio of 1 ± 0.011.

ATTTCGTAGG showed a switch fluorescence ratio of 1.01 ± 0.024.

Work on GTTGTATCGG yielded a switch fluorescence ratio of 0.991 ± 0.021.

AGGTTACATC gave a switch fluorescence ratio of 1.018 ± 0.0016.

Sequence CACGGGGGAA has a switch fluorescence ratio of 1.03 ± 0.029.

With ATTTTTATAC the switch fluorescence ratio was 1.02 ± 0.021.

In the case of AAAGCTGCCA, the switch fluorescence ratio is reported as 1.004 ± 0.0056.

AAAAGTTTTC was tested, and the switch fluorescence ratio was 0.975 ± 0.0098.

Work on TGTAACGGGG yielded a switch fluorescence ratio of 1.03 ± 0.032.

ATTTGGGTGT was tested, and the switch fluorescence ratio was 1.05 ± 0.02.

GGGGAATTAA showed a switch fluorescence ratio of 0.99 ± 0.018.

Work on AGGGACTAGA yielded a switch fluorescence ratio of 1 ± 0.025.

Work on TTTAGGCAGG yielded a switch fluorescence ratio of 0.988 ± 0.022.

GGCACCTGAC was tested, and the switch fluorescence ratio was 1.95 ± 0.11.

For AACTAATCGC, the switch fluorescence ratio was 1.03 ± 0.029.

Work on ATCACATTCG yielded a switch fluorescence ratio of 1.02 ± 0.043.

Sequence AAGTGGTCTG has a switch fluorescence ratio of 0.983 ± 0.017.

For ATTAACTAAA, the switch fluorescence ratio was 1.02 ± 0.017.

GGGGAAGATT showed a switch fluorescence ratio of 0.986 ± 0.03.

Work on GGGTTAACGG yielded a switch fluorescence ratio of 1 ± 0.018.

TTTTGTGAGT gave a switch fluorescence ratio of 1.01 ± 0.04.

Sequence GGGCTAAGGG has a switch fluorescence ratio of 0.985 ± 0.056.

Work on GTGTAAGTA yielded a switch fluorescence ratio of 0.9702 ± 0.0042.

GGGCAAGCTG was tested, and the switch fluorescence ratio was 1.04 ± 0.1.

In the case of CCAATAGTTC, the switch fluorescence ratio is reported as 1.08 ± 0.022.

With TCAAGGGGAA the switch fluorescence ratio was 1 ± 0.019.

With CAGGGACGGG the switch fluorescence ratio was 1.03 ± 0.018.

TTTTGATGTT showed a switch fluorescence ratio of 0.988 ± 0.031.

Sequence TTAGGTTGTA has a switch fluorescence ratio of 0.974 ± 0.025.

CAGCAACATG was tested, and the switch fluorescence ratio was 1.04 ± 0.024.

Sequence CTTCACCAAC has a switch fluorescence ratio of 1.19 ± 0.013.

With AATGACTCAT the switch fluorescence ratio was 0.9808 ± 0.0049.

In the case of CAAAGCTATT, the switch fluorescence ratio is reported as 1.008 ± 0.006.

GATGAATCGG was tested, and the switch fluorescence ratio was 0.973 ± 0.012.

For GCACCGAAAA, the switch fluorescence ratio was 1.29 ± 0.4.

TACAGGGAGT was tested, and the switch fluorescence ratio was 1.06 ± 0.047.

Sequence TTTGAGGAGC has a switch fluorescence ratio of 1.035 ± 0.0028.

TGTGAGGTGT gave a switch fluorescence ratio of 1.02 ± 0.062.

GATGGTGTGA gave a switch fluorescence ratio of 0.978 ± 0.014.

GAGGCGGATT showed a switch fluorescence ratio of 1.01 ± 0.026.

TGTGGTGCGA was tested, and the switch fluorescence ratio was 0.995 ± 0.029.

Work on TTTTTTTGGT yielded a switch fluorescence ratio of 0.996 ± 0.028.

Work on GTTTTAGTGT yielded a switch fluorescence ratio of 0.98716 ± 0.00058.

Sequence ATTGAAGGGC has a switch fluorescence ratio of 0.9661 ± 0.0093.

TTTCTAGTTT was tested, and the switch fluorescence ratio was 0.984 ± 0.026.

With AGATTATGTT the switch fluorescence ratio was 1.01 ± 0.029.

TGAAGGGGCC gave a switch fluorescence ratio of 2.74 ± 2.5.

For TATGAGGTAA, the switch fluorescence ratio was 1.02 ± 0.028.

For TGGGATCTGG, the switch fluorescence ratio was 0.997 ± 0.037.

CAGGAGGATC gave a switch fluorescence ratio of 1.027 ± 0.0074.

Sequence TTTCAGTCAT has a switch fluorescence ratio of 0.978 ± 0.015.

Sequence ATGAGTGACC has a switch fluorescence ratio of 1.02 ± 0.016.

Work on AGGTCAGCTT yielded a switch fluorescence ratio of 1.01 ± 0.04.

TATGCTGAAT gave a switch fluorescence ratio of 1 ± 0.015.

For GGGCAAGACA, the switch fluorescence ratio was 1.23 ± 0.018.

GCCTAACACT showed a switch fluorescence ratio of 1.01 ± 0.04.

Sequence AGCTTCTAAA has a switch fluorescence ratio of 0.976 ± 0.022.

GGAAGGGGCC showed a switch fluorescence ratio of 1.03 ± 0.086.

With TTTAATGGTT the switch fluorescence ratio was 1.02 ± 0.039.

ACCGCATTGT gave a switch fluorescence ratio of 1.96 ± 0.23.

In the case of CATCATGTAC, the switch fluorescence ratio is reported as 1.33 ± 0.059.

Sequence TTCCTTCATT has a switch fluorescence ratio of 1.04 ± 0.016.

For GAGGAAGTTT, the switch fluorescence ratio was 1 ± 0.041.

Sequence TTTATGTCGG has a switch fluorescence ratio of 1.004 ± 0.0091.

Work on ATAGGCTGTT yielded a switch fluorescence ratio of 0.986 ± 0.038.

With AATGATCGAC the switch fluorescence ratio was 0.975 ± 0.012.

In the case of GCTCTTTGAA, the switch fluorescence ratio is reported as 1.01 ± 0.012.

For ACAGGGAAAG, the switch fluorescence ratio was 1.04 ± 0.034.

TTACGTTTGT gave a switch fluorescence ratio of 1.02 ± 0.07.
